Experimental data as given in US20260167699A1 (Chugai, published 2026).

Key:
[1] = biological target: T1, FcγRIIIa extracellular domain, C-terminal His tag (human, UniProt P08637 17-208); assay: SPR; He Ab vs HeCon Ab (GpH7-A5/GpH7-B3/GpL16-k0)=100;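 further: surface plasmon resonance at 25 °C with the test antibody captured on a sensor chip via antigenic peptide, protein L or protein A/G and FcγR flowed over as analyte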
T1 construct: extracellular domain; also called 3a
T1 sequence (P08637 other isoform, or with tags, fused parts or gaps): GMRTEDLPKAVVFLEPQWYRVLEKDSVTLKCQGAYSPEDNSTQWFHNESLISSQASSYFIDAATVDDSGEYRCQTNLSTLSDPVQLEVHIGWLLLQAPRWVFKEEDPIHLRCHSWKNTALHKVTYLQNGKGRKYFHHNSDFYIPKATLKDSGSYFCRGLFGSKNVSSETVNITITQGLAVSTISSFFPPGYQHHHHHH

[2] = biological target: T2, FcγRIIa(R) extracellular domain, C-terminal His tag (human, UniProt P12318 34-217); assay: as above
T2 construct: extracellular domain; also called 2aR
T2 sequence: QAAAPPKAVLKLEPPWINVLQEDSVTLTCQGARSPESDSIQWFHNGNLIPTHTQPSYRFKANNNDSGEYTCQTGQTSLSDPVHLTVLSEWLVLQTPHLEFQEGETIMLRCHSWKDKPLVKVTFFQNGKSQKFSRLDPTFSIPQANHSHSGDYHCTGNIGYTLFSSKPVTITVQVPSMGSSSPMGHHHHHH

[3] = biological target: T3, FcγRIIa(H) extracellular domain, C-terminal His tag (human, UniProt P12318 34-217); assay: as above
T3 construct: extracellular domain; also called 2aH
T3 sequence: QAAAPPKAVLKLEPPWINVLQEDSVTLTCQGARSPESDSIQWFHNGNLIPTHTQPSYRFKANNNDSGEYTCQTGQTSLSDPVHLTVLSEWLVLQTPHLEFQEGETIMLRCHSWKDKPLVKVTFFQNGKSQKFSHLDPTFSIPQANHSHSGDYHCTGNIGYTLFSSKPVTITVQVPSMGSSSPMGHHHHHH

[4] = biological target: T4, FcγRIIb extracellular domain, C-terminal His tag (human, UniProt P31994 43-217); assay: as above
T4 construct: extracellular domain; also called 2b
T4 sequence: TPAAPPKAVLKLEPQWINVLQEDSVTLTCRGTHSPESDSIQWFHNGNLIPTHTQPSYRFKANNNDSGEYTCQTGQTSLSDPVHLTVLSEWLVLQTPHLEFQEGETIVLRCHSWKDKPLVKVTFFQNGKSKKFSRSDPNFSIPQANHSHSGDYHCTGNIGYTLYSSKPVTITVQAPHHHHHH

[5] = biological target: T5, FcγRIa extracellular domain, C-terminal His tag (human, UniProt P12314 16-292); assay: as above
T5 construct: extracellular domain; also called 1a
T5 sequence (P12314 other isoform, or with tags, fused parts or gaps): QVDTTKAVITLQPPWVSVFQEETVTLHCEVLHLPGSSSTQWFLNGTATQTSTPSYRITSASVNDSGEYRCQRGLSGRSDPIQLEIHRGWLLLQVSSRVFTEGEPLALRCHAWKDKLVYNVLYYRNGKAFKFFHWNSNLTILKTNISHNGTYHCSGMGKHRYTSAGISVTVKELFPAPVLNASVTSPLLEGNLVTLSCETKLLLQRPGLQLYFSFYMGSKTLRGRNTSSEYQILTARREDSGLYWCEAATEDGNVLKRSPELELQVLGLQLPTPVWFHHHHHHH

[6] = biological target: T6, FcγRIIa(R) extracellular domain, C-terminal His tag (human, UniProt P12318 34-217); assay: SPR (Biacore); binding relative to GpH7-A5/GpH7-B3/GpL16-k0 x100;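 further: antibodies captured on a chip surface, soluble FcγR flowed over in HBS-EP+ running buffer at 25 °C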
T6 construct: extracellular domain; Allotype R131; also called 2aR
T6 sequence: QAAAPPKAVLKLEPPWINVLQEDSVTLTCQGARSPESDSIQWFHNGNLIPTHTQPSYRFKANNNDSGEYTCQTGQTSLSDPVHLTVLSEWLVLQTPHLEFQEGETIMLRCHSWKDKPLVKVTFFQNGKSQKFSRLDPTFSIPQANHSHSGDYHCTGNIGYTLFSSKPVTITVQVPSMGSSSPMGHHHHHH
Method: (§1) The antibody of interest was analyzed for its interaction with FcγR using a BiaCore™ T100, BiaCore™ A100, or BiaCore™ 4000 surface plasmon resonance system (GE Healthcare Japan Corp.). The running buffer used was HBS-EP+ (GE Healthcare Japan Corp.). The assay temperature was set to 25° C. The sensor chips used were: a chip prepared by immobilizing antigenic peptides onto Series S Sensor Chip CM5 (GE Healthcare Japan Corp.) by the amine coupling method; a chip prepared by immobilizing antigenic peptides biotinylated in advance onto Series S Sensor Chip SA (certified) (GE Healthcare Japan Corp.) through their interaction; a chip prepared by immobilizing protein L (ACTIGEN, BioVision, Inc.) onto Series S Sensor Chip CM5 (GE Healthcare Japan Corp.); and a chip prepared by immobilizing protein A/G (Thermo Fisher Scientific K.K.) onto Series S Sensor Chip CM5 (GE Healthcare Japan Corp.). The antibody of interest was captured onto any of these chips and allowed to interact with FcγR diluted with a running buffer. The antibody captured on the chip was washed off through the reaction of 10 mM glycine-HCl (pH 1.5) to regenerate the chip, which was repetitively used.

[7] = biological target: T7, FcγRIIb extracellular domain, C-terminal His tag (human, UniProt P31994 43-217); assay: as above
T7 construct: extracellular domain; also called 2b
T7 sequence: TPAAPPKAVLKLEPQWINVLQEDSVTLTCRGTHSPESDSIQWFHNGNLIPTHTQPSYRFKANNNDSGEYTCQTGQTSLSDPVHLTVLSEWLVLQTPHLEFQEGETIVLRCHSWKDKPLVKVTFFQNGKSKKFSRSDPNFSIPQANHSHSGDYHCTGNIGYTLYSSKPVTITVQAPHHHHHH
Method: as §1

[8] = biological target: T8, FcγRIIa(H) extracellular domain, C-terminal His tag (human, UniProt P12318 34-217); assay: as above
T8 construct: extracellular domain; Allotype H131; also called 2aH
T8 sequence: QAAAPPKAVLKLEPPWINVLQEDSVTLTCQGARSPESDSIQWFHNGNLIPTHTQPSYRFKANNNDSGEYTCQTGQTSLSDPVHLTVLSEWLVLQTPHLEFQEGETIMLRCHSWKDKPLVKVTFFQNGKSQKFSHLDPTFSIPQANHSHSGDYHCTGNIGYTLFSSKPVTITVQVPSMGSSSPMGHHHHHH
Method: as §1

[9] = biological target: T9, FcγRIa extracellular domain, C-terminal His tag (human, UniProt P12314 16-292); assay: as above
T9 construct: extracellular domain; also called 1a
T9 sequence (P12314 other isoform, or with tags, fused parts or gaps): as the sequence (P12314 other isoform, or with tags, fused parts or gaps) above
Method: as §1

[10] = biological target: T10, FcγRIIIa extracellular domain, C-terminal His tag (human, UniProt P08637 17-208); assay: as above
T10 construct: extracellular domain; also called 3a
T10 sequence (P08637 other isoform, or with tags, fused parts or gaps): as the sequence (P08637 other isoform, or with tags, fused parts or gaps) above
Method: as §1

Binder	He/Con 3a [1]	He/Con 2aR [2]	He/Con 2aH [3]	He/Con 2b [4]	He/Con 1a [5]	He/Con 2aR [6]	He/Con 2b [7]	He/Con 2aH [8]	He/Con 1a [9]	He/Con 3a [10]
GpH7-A5/GpH7-B3 variant Y300_20W/GpL16-k0 (antibody, human IgG1, kappa, heterodimerized IgG1, one H chain mutated; also called He Ab; copies: 1 + 1 + 2) heavy 1: not shown heavy 2: not shown light: DIVMTQSPLSLPVTPGEPASISCQASESLVHSNRNTYLHWYLQKPGQSPQLLIYKVSNRFSGVPDRFSGSGSGTDFTLKISRVEAEDVGVYYCSQNTHVPPTFGQGTKVEIERTVAAPSVFIFPPSDEQLKSGTASVVCLLNNFYPREAKVQWKVDNALQSGNSQESVTEQDSKDSTYSLSSTLTLSKADYEKHKVYACEVTHQGLSSPVTKSFNRGEC	101%	104%	103%	110%	106%	–	–	–	–	–
GpH7-A5/GpH7-B3 variant K326_20W/GpL16-k0 (antibody, human IgG1, kappa, He Ab: anti-glypican 3 IgG1 heterodimer, only the GpH7-B3 chain mutated; position in EU numbering; also called He Ab) heavy 1: not shown heavy 2: not shown light: DIVMTQSPLSLPVTPGEPASISCQASESLVHSNRNTYLHWYLQKPGQSPQLLIYKVSNRFSGVPDRFSGSGSGTDFTLKISRVEAEDVGVYYCSQNTHVPPTFGQGTKVEIERTVAAPSVFIFPPSDEQLKSGTASVVCLLNNFYPREAKVQWKVDNALQSGNSQESVTEQDSKDSTYSLSSTLTLSKADYEKHKVYACEVTHQGLSSPVTKSFNRGEC	–	–	–	–	–	125%	166%	86.7%	108%	93.7%
GpH7-A5/GpH7-B3 variant A327_06M/GpL16-k0 (antibody, human IgG1, kappa, He Ab: anti-glypican 3 IgG1 heterodimer, only the GpH7-B3 chain mutated; position in EU numbering; also called He Ab) heavy 1: not shown heavy 2: not shown light: DIVMTQSPLSLPVTPGEPASISCQASESLVHSNRNTYLHWYLQKPGQSPQLLIYKVSNRFSGVPDRFSGSGSGTDFTLKISRVEAEDVGVYYCSQNTHVPPTFGQGTKVEIERTVAAPSVFIFPPSDEQLKSGTASVVCLLNNFYPREAKVQWKVDNALQSGNSQESVTEQDSKDSTYSLSSTLTLSKADYEKHKVYACEVTHQGLSSPVTKSFNRGEC	–	–	–	–	–	80%	74.1%	89.3%	106%	54%
GpH7-A5/GpH7-B3 variant A327_19Q/GpL16-k0 (antibody, human IgG1, kappa, He Ab: anti-glypican 3 IgG1 heterodimer, only the GpH7-B3 chain mutated; position in EU numbering; also called He Ab) heavy 1: not shown heavy 2: not shown light: DIVMTQSPLSLPVTPGEPASISCQASESLVHSNRNTYLHWYLQKPGQSPQLLIYKVSNRFSGVPDRFSGSGSGTDFTLKISRVEAEDVGVYYCSQNTHVPPTFGQGTKVEIERTVAAPSVFIFPPSDEQLKSGTASVVCLLNNFYPREAKVQWKVDNALQSGNSQESVTEQDSKDSTYSLSSTLTLSKADYEKHKVYACEVTHQGLSSPVTKSFNRGEC	–	–	–	–	–	77.7%	67.5%	79.6%	98.5%	54%
GpH7-A5/GpH7-B3 variant A327_20W/GpL16-k0 (antibody, human IgG1, kappa, He Ab: anti-glypican 3 IgG1 heterodimer, only the GpH7-B3 chain mutated; position in EU numbering; also called He Ab) heavy 1: not shown heavy 2: not shown light: DIVMTQSPLSLPVTPGEPASISCQASESLVHSNRNTYLHWYLQKPGQSPQLLIYKVSNRFSGVPDRFSGSGSGTDFTLKISRVEAEDVGVYYCSQNTHVPPTFGQGTKVEIERTVAAPSVFIFPPSDEQLKSGTASVVCLLNNFYPREAKVQWKVDNALQSGNSQESVTEQDSKDSTYSLSSTLTLSKADYEKHKVYACEVTHQGLSSPVTKSFNRGEC	–	–	–	–	–	95.9%	98.2%	76.6%	100%	52.6%
GpH7-A5/GpH7-B3 variant A327_09D/GpL16-k0 (antibody, human IgG1, kappa, He Ab: anti-glypican 3 IgG1 heterodimer, only the GpH7-B3 chain mutated; position in EU numbering; also called He Ab) heavy 1: not shown heavy 2: not shown light: DIVMTQSPLSLPVTPGEPASISCQASESLVHSNRNTYLHWYLQKPGQSPQLLIYKVSNRFSGVPDRFSGSGSGTDFTLKISRVEAEDVGVYYCSQNTHVPPTFGQGTKVEIERTVAAPSVFIFPPSDEQLKSGTASVVCLLNNFYPREAKVQWKVDNALQSGNSQESVTEQDSKDSTYSLSSTLTLSKADYEKHKVYACEVTHQGLSSPVTKSFNRGEC	–	–	–	–	–	159%	214%	124%	105%	86%
GpH7-A5/GpH7-B3 variant A327_10E/GpL16-k0 (antibody, human IgG1, kappa, He Ab: anti-glypican 3 IgG1 heterodimer, only the GpH7-B3 chain mutated; position in EU numbering; also called He Ab) heavy 1: not shown heavy 2: not shown light: DIVMTQSPLSLPVTPGEPASISCQASESLVHSNRNTYLHWYLQKPGQSPQLLIYKVSNRFSGVPDRFSGSGSGTDFTLKISRVEAEDVGVYYCSQNTHVPPTFGQGTKVEIERTVAAPSVFIFPPSDEQLKSGTASVVCLLNNFYPREAKVQWKVDNALQSGNSQESVTEQDSKDSTYSLSSTLTLSKADYEKHKVYACEVTHQGLSSPVTKSFNRGEC	–	–	–	–	–	142%	175%	108%	106%	70.5%
GpH7-A5/GpH7-B3 variant A327_05P/GpL16-k0 (antibody, human IgG1, kappa, He Ab: anti-glypican 3 IgG1 heterodimer, only the GpH7-B3 chain mutated; position in EU numbering; also called He Ab) heavy 1: not shown heavy 2: not shown light: DIVMTQSPLSLPVTPGEPASISCQASESLVHSNRNTYLHWYLQKPGQSPQLLIYKVSNRFSGVPDRFSGSGSGTDFTLKISRVEAEDVGVYYCSQNTHVPPTFGQGTKVEIERTVAAPSVFIFPPSDEQLKSGTASVVCLLNNFYPREAKVQWKVDNALQSGNSQESVTEQDSKDSTYSLSSTLTLSKADYEKHKVYACEVTHQGLSSPVTKSFNRGEC	–	–	–	–	–	80.6%	86.3%	67.9%	102%	61.9%
GpH7-A5/GpH7-B3 variant A330_03V/GpL16-k0 (antibody, human IgG1, kappa, He Ab: anti-glypican 3 IgG1 heterodimer, only the GpH7-B3 chain mutated; position in EU numbering; also called He Ab) heavy 1: not shown heavy 2: not shown light: DIVMTQSPLSLPVTPGEPASISCQASESLVHSNRNTYLHWYLQKPGQSPQLLIYKVSNRFSGVPDRFSGSGSGTDFTLKISRVEAEDVGVYYCSQNTHVPPTFGQGTKVEIERTVAAPSVFIFPPSDEQLKSGTASVVCLLNNFYPREAKVQWKVDNALQSGNSQESVTEQDSKDSTYSLSSTLTLSKADYEKHKVYACEVTHQGLSSPVTKSFNRGEC	–	–	–	–	–	84%	59.2%	86.1%	109%	98.8%
GpH7-A5/GpH7-B3 variant A327_18N/GpL16-k0 (antibody, human IgG1, kappa, He Ab: anti-glypican 3 IgG1 heterodimer, only the GpH7-B3 chain mutated; position in EU numbering; also called He Ab) heavy 1: not shown heavy 2: not shown light: DIVMTQSPLSLPVTPGEPASISCQASESLVHSNRNTYLHWYLQKPGQSPQLLIYKVSNRFSGVPDRFSGSGSGTDFTLKISRVEAEDVGVYYCSQNTHVPPTFGQGTKVEIERTVAAPSVFIFPPSDEQLKSGTASVVCLLNNFYPREAKVQWKVDNALQSGNSQESVTEQDSKDSTYSLSSTLTLSKADYEKHKVYACEVTHQGLSSPVTKSFNRGEC	–	–	–	–	–	114%	141%	79%	100%	62.8%
GpH7-A5/GpH7-B3 variant A330_01G/GpL16-k0 (antibody, human IgG1, kappa, He Ab: anti-glypican 3 IgG1 heterodimer, only the GpH7-B3 chain mutated; position in EU numbering; also called He Ab) heavy 1: not shown heavy 2: not shown light: DIVMTQSPLSLPVTPGEPASISCQASESLVHSNRNTYLHWYLQKPGQSPQLLIYKVSNRFSGVPDRFSGSGSGTDFTLKISRVEAEDVGVYYCSQNTHVPPTFGQGTKVEIERTVAAPSVFIFPPSDEQLKSGTASVVCLLNNFYPREAKVQWKVDNALQSGNSQESVTEQDSKDSTYSLSSTLTLSKADYEKHKVYACEVTHQGLSSPVTKSFNRGEC	–	–	–	–	–	122%	117%	107%	109%	87.3%
GpH7-A5/GpH7-B3 variant A327_13S/GpL16-k0 (antibody, human IgG1, kappa, He Ab: anti-glypican 3 IgG1 heterodimer, only the GpH7-B3 chain mutated; position in EU numbering; also called He Ab) heavy 1: not shown heavy 2: not shown light: DIVMTQSPLSLPVTPGEPASISCQASESLVHSNRNTYLHWYLQKPGQSPQLLIYKVSNRFSGVPDRFSGSGSGTDFTLKISRVEAEDVGVYYCSQNTHVPPTFGQGTKVEIERTVAAPSVFIFPPSDEQLKSGTASVVCLLNNFYPREAKVQWKVDNALQSGNSQESVTEQDSKDSTYSLSSTLTLSKADYEKHKVYACEVTHQGLSSPVTKSFNRGEC	–	–	–	–	–	98.6%	99%	84.4%	105%	66.7%
